{
  "source": "paper PMC10197057",
  "about": "(Microbial Cell Factories, 2023)",
  "binders": {"B1": {"name": "monovalent antilysozyme nanobody 1ZVH (VHH)", "VHH": "DVQLVESGGGSVQAGGSLRLSCAASGYIASINYLGWFRQAPGKEREGVAAVSPAGGTPYYADSVKGRFTVSLDNAENTVYLQMNSLKPEDTALYYCAAARQGWYIPLNSYGYNYWGQGTQVTVSS", "notes": "anti-lysozyme camelid VHH; also called anti-lysozyme VHH; not shown: CBH2 secretory signal, CBD-carrier polypeptide and KEX2 linker (RDKR), N-terminal, cleaved; His6, C-terminal, kept"}},
  "target": "T1, lysozyme from chicken egg white (Gallus gallus, UniProt P00698)",
  "T1 construct": "lysozyme from chicken egg white (Sigma-Aldrich L4919); source: bought: Sigma-Aldrich (L4919)",
  "T1 sequence (P00698 19-147)": "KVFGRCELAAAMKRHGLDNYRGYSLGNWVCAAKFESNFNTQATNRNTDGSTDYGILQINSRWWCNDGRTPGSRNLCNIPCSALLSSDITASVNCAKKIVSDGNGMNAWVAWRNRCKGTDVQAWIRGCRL",
  "experiment": "BLI; BLItz system; nanobody (100 mg/L) loaded via His-tag on Anti-Penta-HIS (HIS1K) sensor; dilution series of antigen in solution; association 180 s, dissociation 300 s; sensor hydrated in PBS-T (0.1% Tween-20); reference without antigen; global fitting",
  "conditions": "both partners purified",
  "data": [
    {"binder": "B1", "values": [
      {"measurement": "Kd", "value": 1.5, "unit": "nM"}
    ]}
  ]
}
